Values joined by “and” are separate entries in the source; they are usually repeats but may differ in a detail not shown here. Identical values can stand only once.
Biological target: Nogo-B receptor construct NgBR(79–293) (human) (UniProt Q96E22)
Assay: SEC; size exclusion (Superdex 200 10/300 GL) in-line with synchrotron SAXS; 20 mg/mL NgBR(79-293), 20 mM HEPES pH 7.5, 150 mM NaCl, 5% glycerol, 1 mM TCEP, 25°C

stoichiometry N: 2 and 4
Substance: Nogo-B receptor construct NgBR(79–293) (from UniProt Q96E22 79-293) (domain or fragment)
